Assay [1] concerns the target T1, recombinant human IL-23 (hrIL-23), produced at Centocor (human, UniProt P29460 23-328).
T1 construct: p19-p40 heterodimer; also called rhIL-23; huIL-23
T1 sequence 1: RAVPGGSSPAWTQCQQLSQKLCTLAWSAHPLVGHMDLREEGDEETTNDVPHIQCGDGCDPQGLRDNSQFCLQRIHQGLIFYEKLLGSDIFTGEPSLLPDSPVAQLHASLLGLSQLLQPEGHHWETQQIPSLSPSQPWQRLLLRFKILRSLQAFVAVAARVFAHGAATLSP
T1 sequence 2: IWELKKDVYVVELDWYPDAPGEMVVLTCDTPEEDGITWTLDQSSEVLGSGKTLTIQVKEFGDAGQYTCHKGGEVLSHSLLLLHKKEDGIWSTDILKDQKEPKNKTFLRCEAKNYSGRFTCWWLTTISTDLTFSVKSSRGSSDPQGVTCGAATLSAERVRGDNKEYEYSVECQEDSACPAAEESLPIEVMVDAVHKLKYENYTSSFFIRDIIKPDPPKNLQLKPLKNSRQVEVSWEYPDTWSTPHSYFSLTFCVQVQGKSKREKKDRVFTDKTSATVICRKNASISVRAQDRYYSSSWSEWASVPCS
Briefly: hrIL-23/hIL-23R competition assay.

The target of assay [2] is T1, recombinant human IL-23 (hrIL-23), …. Briefly: SET.
Assay [3] has the same target. Briefly: IL-23/IL-23R competition assay.
Assay [4] has the same target. Briefly: Biacore, Fab capture.
The target of assay [5] is T2, recombinant human IL-12 (hrIL-12), produced at Centocor (human, UniProt P29459 23-219; P29460 23-328).
T2 construct: also called IL-12 CNTO
T2 sequence (looked up) 1: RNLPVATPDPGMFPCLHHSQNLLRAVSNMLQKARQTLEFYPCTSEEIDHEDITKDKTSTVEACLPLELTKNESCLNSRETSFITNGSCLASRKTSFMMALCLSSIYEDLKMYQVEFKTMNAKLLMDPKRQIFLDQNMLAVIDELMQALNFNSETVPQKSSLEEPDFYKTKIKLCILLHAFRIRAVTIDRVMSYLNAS
T2 sequence (looked up) 2: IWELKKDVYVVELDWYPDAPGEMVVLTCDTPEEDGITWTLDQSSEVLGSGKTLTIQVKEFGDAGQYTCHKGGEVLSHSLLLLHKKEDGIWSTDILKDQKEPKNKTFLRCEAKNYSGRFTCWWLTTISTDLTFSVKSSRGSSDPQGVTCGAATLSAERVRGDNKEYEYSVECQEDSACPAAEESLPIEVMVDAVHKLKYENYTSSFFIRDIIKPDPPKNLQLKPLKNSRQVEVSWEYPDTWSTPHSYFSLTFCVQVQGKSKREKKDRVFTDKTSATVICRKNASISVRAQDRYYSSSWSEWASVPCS
Briefly: not told.

For assay [6], the target named is T3, murine IL-23 (murine, UniProt Q9EQ14 22-196; P43432 23-335).
T3 sequence (looked up) 1: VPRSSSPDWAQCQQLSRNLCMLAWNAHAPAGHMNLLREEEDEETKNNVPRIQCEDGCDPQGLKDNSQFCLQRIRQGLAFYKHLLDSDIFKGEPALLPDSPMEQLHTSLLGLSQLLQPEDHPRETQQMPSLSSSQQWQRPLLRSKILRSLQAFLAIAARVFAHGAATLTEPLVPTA
T3 sequence (looked up) 2: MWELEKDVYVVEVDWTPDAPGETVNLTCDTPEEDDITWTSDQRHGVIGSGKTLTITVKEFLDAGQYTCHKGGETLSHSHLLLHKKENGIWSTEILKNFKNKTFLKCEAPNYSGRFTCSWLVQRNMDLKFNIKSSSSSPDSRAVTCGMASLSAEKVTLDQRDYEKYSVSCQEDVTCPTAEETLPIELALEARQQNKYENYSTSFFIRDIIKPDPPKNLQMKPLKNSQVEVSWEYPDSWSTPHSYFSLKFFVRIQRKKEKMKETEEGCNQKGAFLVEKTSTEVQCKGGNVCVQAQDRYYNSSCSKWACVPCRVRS
Briefly: cytokine capture ELISA: mAbs coated onto plates, cytokines at 100 ng/ml; murine p40 containing cytokine detected with C17.8-biotin.

Assay [7] has as its target T4, mIL-12 (Disulfide-linked, glycosylated heterodimer; the letters do not carry this.).
T4 construct: also called murine IL-12; copies: 1 + 1
T4 alpha: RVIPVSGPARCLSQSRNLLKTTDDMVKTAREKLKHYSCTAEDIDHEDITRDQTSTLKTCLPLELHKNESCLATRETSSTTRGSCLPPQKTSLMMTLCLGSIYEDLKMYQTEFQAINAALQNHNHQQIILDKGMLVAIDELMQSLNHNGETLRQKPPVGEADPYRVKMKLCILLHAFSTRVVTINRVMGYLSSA
T4 beta: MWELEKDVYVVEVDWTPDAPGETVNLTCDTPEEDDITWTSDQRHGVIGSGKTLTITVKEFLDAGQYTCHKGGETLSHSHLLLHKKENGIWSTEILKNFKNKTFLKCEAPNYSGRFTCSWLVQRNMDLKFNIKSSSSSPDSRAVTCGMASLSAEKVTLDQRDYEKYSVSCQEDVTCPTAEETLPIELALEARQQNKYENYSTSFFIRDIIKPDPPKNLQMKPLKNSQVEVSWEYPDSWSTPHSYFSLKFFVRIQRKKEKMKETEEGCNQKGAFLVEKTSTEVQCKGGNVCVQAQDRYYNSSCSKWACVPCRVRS
The description is as above.

Assay [8] concerns the target T5, murine p40 (murine, UniProt P43432 23-335).
T5 sequence (looked up): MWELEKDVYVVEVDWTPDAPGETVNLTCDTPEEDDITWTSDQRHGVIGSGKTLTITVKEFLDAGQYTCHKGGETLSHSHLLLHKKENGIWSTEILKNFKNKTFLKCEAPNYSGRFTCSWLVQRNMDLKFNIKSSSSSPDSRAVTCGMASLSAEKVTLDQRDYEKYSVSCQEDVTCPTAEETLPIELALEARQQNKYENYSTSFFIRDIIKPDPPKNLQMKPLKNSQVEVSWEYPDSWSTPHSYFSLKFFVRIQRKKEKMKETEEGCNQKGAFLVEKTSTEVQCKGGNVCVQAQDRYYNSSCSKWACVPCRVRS
Briefly: cytokine capture ELISA: mAbs coated onto plates, cytokines at 100 ng/ml; murine p40 containing cytokine detected with C17.8-biotin; target printed as m(p40)2.

Assay [9] addresses T2, recombinant human IL-12 (hrIL-12), …. Put plainly: cytokine capture ELISA: mAbs coated onto plates, cytokines at 100 ng/ml, binding detected with mAb12B-biotin. How it is done:
(§1) Purified mouse anti-hIL-23 mAbs were evaluated in cytokine capture ELISA to determine their antigen subunit specificity. Briefly, IL-23 mAbs were coated onto plates and incubated with 100 ng/ml) hrIL-23, hrIL-12, and hrp40, respectively. Following incubation with biotinylated anti-p40 mAb, the binding was detected using HRP—conjugated streptavidin. An anti-p40 mAb and an anti-IL-12 mAb (20C2, Catalog No. 555065, BD Pharmingen, San Diego, Calif.) with known specificity were used as controls.

Assay [10] deals with T6, p40 subunit of hrIL-12 (hrp40 monomer) (human, UniProt P29460 23-328).
T6 construct: also called p40 R&D
T6 sequence (looked up): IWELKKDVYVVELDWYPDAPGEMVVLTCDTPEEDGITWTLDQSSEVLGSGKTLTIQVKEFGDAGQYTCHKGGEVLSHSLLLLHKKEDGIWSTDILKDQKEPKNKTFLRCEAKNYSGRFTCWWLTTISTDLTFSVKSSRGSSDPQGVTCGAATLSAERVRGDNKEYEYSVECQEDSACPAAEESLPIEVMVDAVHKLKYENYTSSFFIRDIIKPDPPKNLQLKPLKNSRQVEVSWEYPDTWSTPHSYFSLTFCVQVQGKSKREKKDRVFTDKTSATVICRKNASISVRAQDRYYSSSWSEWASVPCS
The assay is described as above. How it is done:
as §1

In assay [11] the target is T1, recombinant human IL-23 (hrIL-23), …. Put plainly: cell-based or functional assay.
The target is the same in assay [12]. Briefly: biotinylated hrIL-23 on immobilized IL-23R-Fc. How it is done:
In this experiment, a human IL-23R-Fc fusion protein was immobilized on a plate. This fusion protein consists of the extracellular domain of human IL-23 receptor fused to a human Fc segment. Biotinylated hrIL-23 was added to the plate either alone or after preincubation with individual IL-23p19 mAbs. Soluble IL-23R (IL-23R-Fc) was used as a positive control. IL-23 binding was detected with HRP-conjugated streptavidin. […] There was no inhibition by B21M, a mAb with unrelated specificity. […] IL-23 binding was inhibited by the p40 neutralizing mAb CNTO 1275 (same as mAb 12A), as expected. […] CNTO 1275 again served as a positive control.

The values below come from patent US20180291096A1 (Janssen / Centocor, published 2018).

B1: MOR04083 Fab (Fab, V domains shown)
VH: QVQLVQSGAEVKKPGSSVKVSCKASGGTFSNYAISWVRQAPGQGLEWMGGIIPMFGYANYAQKFQGRVTITADESTSTAYMELSSLRSEDTAVYYCARDIYAGMDVWGQGTLVTVSS
VL: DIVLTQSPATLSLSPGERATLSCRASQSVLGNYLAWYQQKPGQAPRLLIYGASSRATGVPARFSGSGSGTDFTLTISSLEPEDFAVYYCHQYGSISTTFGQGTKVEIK
notes: Fab
In the case of B1, the IC50 worked out at 4.6 nM in assay [1] and 7.1 nM in [3]. For the same molecule, the Kd in assay [2] came out at 1.6 nM; in [4], 16 nM.

B2: MOR05028 Fab (Fab, V domains shown)
VH: QVQLVQSGAEVKKPGSSVKVSCKASGGTFSNYAISWVRQAPGQGLEWMGGIIPVFGFTHYAQKFQGRVTITADESTSTAYMELSSLRSEDTAVYYCARDIYAGMDVWGQGTLVTVSS
VL: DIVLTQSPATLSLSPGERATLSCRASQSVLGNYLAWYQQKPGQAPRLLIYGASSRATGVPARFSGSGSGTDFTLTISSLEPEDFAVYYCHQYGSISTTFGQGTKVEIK
notes: Fab
With B2, the binding result in assay [5] is recorded as “no binding”. In assay [2], the Kd was found to be 0.133 nM. In addition, the IC50 in [3] is 0.43 nM.

B3: MOR04083 mAb (antibody, human IgG1, V domains shown)
VH: QVELVQSGAEVKKPGSSVKVSCKASGGTFSNYAISWVRQAPGQGLEWMGGIIPMFGYANYAQKFQGRVTITADESTSTAYMELSSLRSEDTAVYYCARDIYAGMDVWGQGTLVTVSS
VL: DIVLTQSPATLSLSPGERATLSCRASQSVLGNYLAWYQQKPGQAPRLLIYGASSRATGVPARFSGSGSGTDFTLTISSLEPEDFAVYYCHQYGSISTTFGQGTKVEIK
notes: human IgG1/kappa; also called 4083 (κ)
Turning to B3, the binding result in assay [6], in [7], in assay [8], in assay [9] and in assay [10] was “no binding (tested: 100 ng/ml)” in each case. For the same molecule, in [11], the “IC50, inhibition of IL-17 production” value was found to be 1.4 µg/mL. Besides, in assay [12], the “fold weaker potency than soluble IL-23R-Fc” value was around 3 fold.

B4: MOR05038 Fab (Fab, V domains shown)
VH: QVQLVQSGAEVKKPGSSVKVSCKASGGTFSSNYISWVRQAPGQGLEWMGINAHLGGTWYAQKFQGRVTITADESTSTAYMELSSLRSEDTAVYYCARSKKGMYGGWTYPLMMFDLWGQGTLVTVSS
VL: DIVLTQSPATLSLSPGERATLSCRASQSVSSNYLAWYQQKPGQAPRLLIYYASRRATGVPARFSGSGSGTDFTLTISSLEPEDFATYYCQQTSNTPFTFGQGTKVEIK
notes: Fab
On to B4, for which the binding result in [5] is given as “no binding”. For the same molecule, in [2], the Kd was 0.038 nM. Moreover, the IC50 in assay [3] was 0.17 nM.

B5: MOR04190 Fab (Fab, V domains shown)
VH: QVQLVQSGAEVKKPGSSVKVSCKASGGTFSSNYISWVRQAPGQGLEWMGGIIPIFGHANYAQKFQGRVTITADESTSTAYMELSSLRSEDTAVYYCARSKKGMYGGWTYPLMMFDLWGQGTLVTVSS
VL: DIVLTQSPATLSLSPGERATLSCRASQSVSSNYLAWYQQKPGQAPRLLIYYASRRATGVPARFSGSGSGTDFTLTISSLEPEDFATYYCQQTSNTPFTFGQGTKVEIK
notes: Fab
On to B5, for which the IC50 in [1] worked out at 4.8 nM; in [3], 1.3 nM. For the same molecule, the results for the Kd in assay [2] and in assay [4] were 4.4 nM and 11 nM, respectively.
